Assay results as given in PMC8496693.

How the values were obtained:
[1] = molecular target: mChe-INPP5E (UniProt Q9NRR6); test: VIP assay (fluorescence intensity of mChe-INPP5E on GST-anti-GFP Nb beads); conditions: lysates of HEK293T cells coexpressing both constructs; three independent experiments; parent: 100; read off a plot
[2] = molecular target: mChe-INPP5E (UniProt Q9NRR6); test: immunoblotting of anti-GFP Nb precipitates (band intensity of mChe-INPP5E); conditions: lysates of HEK293T cells coexpressing both constructs; three independent experiments; parent: 100; read off a plot

Chain of ARL13B(WT)-EGFP, Q3SXY8 AAEA (RVEP mutated to AAEA) (Q3SXY8 other isoform, or with tags, fused parts or gaps AAEA (RVEP mutated to AAEA)): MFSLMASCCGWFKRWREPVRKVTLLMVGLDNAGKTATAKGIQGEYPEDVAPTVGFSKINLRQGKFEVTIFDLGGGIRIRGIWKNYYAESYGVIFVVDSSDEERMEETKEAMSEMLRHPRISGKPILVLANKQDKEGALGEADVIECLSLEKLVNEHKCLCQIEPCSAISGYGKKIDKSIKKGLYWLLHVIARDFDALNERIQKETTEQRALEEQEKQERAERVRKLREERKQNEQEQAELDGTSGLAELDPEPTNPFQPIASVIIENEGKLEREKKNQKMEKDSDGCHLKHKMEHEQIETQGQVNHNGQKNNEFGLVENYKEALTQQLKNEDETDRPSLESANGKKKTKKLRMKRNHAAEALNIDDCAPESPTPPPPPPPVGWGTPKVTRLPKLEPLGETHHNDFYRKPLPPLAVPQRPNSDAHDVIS
Chain of mChe-INPP5E (Q9NRR6 whole entry): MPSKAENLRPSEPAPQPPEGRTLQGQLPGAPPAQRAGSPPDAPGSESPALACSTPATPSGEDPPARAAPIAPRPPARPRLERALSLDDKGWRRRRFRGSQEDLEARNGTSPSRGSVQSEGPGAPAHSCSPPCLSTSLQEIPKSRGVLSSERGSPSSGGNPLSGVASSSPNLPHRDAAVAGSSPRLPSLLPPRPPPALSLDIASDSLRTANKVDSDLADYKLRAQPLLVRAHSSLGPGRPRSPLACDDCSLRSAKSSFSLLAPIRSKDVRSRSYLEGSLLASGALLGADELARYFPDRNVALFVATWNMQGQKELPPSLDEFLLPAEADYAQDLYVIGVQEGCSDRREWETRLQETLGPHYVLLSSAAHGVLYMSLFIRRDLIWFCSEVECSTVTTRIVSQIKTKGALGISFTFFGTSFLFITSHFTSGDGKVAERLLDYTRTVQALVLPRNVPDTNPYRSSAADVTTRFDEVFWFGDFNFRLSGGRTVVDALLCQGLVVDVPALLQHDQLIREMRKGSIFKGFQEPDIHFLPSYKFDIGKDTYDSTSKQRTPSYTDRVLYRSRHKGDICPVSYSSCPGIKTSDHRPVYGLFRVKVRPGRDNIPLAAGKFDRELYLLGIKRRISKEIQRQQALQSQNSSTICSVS

A percent of parent (% of ARL13B(WT)-EGFP) [1] of 100 and a percent of parent (% of ARL13B(WT)-EGFP) [2] of 110 were found for “ARL13B(WT)-EGFP, Q3SXY8 AAEA (RVEP mutated to AAEA)” in this work.
